Measured values published in paper PMC5797828 (Cancer Science, 2017).

Target: T1, Human γ-catenin, MYC/DDK-Tag (recombinant) (human, UniProt P14923 1-745)
T1 sequence (looked up): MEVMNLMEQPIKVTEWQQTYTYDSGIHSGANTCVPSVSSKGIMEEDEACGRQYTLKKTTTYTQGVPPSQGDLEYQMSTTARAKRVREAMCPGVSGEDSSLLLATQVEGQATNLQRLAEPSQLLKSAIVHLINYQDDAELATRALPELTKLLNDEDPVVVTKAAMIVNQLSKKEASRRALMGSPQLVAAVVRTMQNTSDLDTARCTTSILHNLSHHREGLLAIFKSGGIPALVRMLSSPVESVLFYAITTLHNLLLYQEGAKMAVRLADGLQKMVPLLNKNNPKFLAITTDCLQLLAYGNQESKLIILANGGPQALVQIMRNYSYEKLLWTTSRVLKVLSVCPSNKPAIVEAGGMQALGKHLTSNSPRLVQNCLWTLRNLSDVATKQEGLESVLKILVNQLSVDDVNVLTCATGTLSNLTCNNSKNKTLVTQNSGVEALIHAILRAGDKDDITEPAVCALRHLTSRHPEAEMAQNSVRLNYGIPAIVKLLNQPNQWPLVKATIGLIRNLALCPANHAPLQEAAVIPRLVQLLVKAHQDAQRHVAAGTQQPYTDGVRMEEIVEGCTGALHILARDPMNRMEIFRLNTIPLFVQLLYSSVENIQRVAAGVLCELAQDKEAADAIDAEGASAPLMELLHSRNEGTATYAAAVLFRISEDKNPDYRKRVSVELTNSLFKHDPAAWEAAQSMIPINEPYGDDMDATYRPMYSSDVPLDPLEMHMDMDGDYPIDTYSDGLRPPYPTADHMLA
Experiment: SPR

B1: Human PRDM14, GST-Tag at N-terminus (GST-PRDM14) (natural protein, UniProt Q9GZV8 1-571, looked up)
chain: MALPRPSEAVPQDKVCYPPESSPQNLAAYYTPFPSYGHYRNSLATVEEDFQPFRQLEAAASAAPAMPPFPFRMAPPLLSPGLGLQREPLYDLPWYSKLPPWYPIPHVPREVPPFLSSSHEYAGASSEDLGHQIIGGDNESGPCCGPDTLIPPPPADASLLPEGLRTSQLLPCSPSKQSEDGPKPSNQEGKSPARFQFTEEDLHFVLYGVTPSLEHPASLHHAISGLLVPPDSSGSDSLPQTLDKDSLQLPEGLCLMQTVFGEVPHFGVFCSSFIAKGVRFGPFQGKVVNASEVKTYGDNSVMWEIFEDGHLSHFIDGKGGTGNWMSYVNCARFPKEQNLVAVQCQGHIFYESCKEIHQNQELLVWYGDCYEKFLDIPVSLQVTEPGKQPSGPSEESAEGYRCERCGKVFTYKYYRDKHLKYTPCVDKGDRKFPCSLCKRSFEKRDRLRIHILHVHEKHRPHKCSTCGKCFSQSSSLNKHMRVHSGDRPYQCVYCTKRFTASSILRTHIRQHSGEKPFKCKYCGKSFASHAAHDSHVRRSHKEDDGCSCSICGKIFSDQETFYSHMKFHEDY
binding result: binds
